Experimental findings from article PMC12622545, “An Allele of Glutamate Formiminotransferase Triggers 5‐Methyl‐Tetrahydrofolate‐to‐MeFox Conversion and Facilitates Folate Biofortification in Maize” (Advanced Science, 2025) are described below.

Experiment in all cases: LC-MS of MeFox formation, initial rates, Michaelis-Menten fit
Settings in all cases: 50 mM sodium phosphate pH 7.0, 10 mM beta-mercaptoethanol, 30 °C, 0.5 µM protein

One series addresses T1, SbGFT (Sorghum bicolor, UniProt C5WU82).
T1 construct: gene SORBI_3001G181300; synthetic gene, C-terminal 6xHis tag, E. coli BL21(DE3); monomer; 317 residues (apo crystal: A6-D317, C260S/C314S)
T1 sequence (C5WU82 1-317): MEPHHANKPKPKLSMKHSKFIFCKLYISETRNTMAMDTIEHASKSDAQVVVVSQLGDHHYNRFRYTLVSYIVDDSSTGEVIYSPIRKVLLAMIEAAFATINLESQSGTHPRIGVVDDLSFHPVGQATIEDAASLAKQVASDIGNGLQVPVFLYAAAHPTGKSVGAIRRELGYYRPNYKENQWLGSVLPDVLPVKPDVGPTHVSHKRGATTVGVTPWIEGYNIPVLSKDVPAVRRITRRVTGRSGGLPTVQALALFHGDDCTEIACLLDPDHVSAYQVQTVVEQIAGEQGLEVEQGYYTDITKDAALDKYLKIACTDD
Type of series: biochemical.

Substrate in series [1]: CN1c2c(nc(N)[nH]c2=O)NC[C@@H]1CNc1ccc(C(=O)N[C@@H](CCC(=O)O)C(=O)O)cc1
Type of series: biochemical, Zea mays.

Substrate in series [2]: CN1c2c(nc(N)[nH]c2=O)NC[C@@H]1CNc1ccc(C(=O)N[C@@H](CCC(=O)O)C(=O)O)cc1
The format is biochemical, Zea mays. The source says:
LC-MS of MeFox formation, initial rates, Michaelis-Menten fit on ZmGFT-Qi319 | reduced approximately by sixfold for the mutant ZmGFT‐Qi319^G232N
This is another data set of the same source.

Where a chain is given by its changes, count along the chain named. Names and notes keep the numbering of the source.

With `CN1c2c(nc(N)[nH]c2=O)NC[C@@H]1CNc1ccc(C(=O)N[C@@H](CCC(=O)O)C(=O)O)cc1` [5-M-THF], on SbGFT, the K m result was “Converting analysis of wild‐type SbGFT and its mutant SbGFT^G219N”.

B1: ZmGFT-B73 (Zea mays) (protein)
chain: MEPHHANKPRPKLSATKHSKFISCKLYISESRNATAVDAVERASKSDPQVVVVSQFGDHHYNRFRYTLVSYIVVVDGGGSSAAGEATVVHSPIRKVLLAMIEAAFSSIDLESQSGAHPRIGVVDDLSFHPVGQATIEDAASLARQVASDIACIAAVPVFLYAAAHPAGKSVGAVRRELGYYRPNYRGNQWSGSVLPNVLPVKPDVGPAHVVSHKRGATTVGVTPWIENYNVPVLCKDVATVRRITRGVTGRSGGLPTVQALALFHGDDCTEIACLLDPDHASAYQVQTVVEQIAGDQGLEVEQGYYTDITKDEALDKYLKIACADD
notes: C-terminal 10xHis tag, modified pFastBac1, Sf-9 insect cells; monomer; annotated 326 residues; Asn228
One may read the Km as the concentration of substrate that gives half-maximal velocity. As a reminder, the kcat is the number of substrate molecules converted per active site and unit of time at saturation. The term kcat/Km denotes the second-order rate constant that governs catalysis at low substrate concentration. Turning to B1, in series [1], the Km was 3108.0 ± 2675.5 µM, the kcat was found to be 0.0783 ± 0.055 s⁻¹ and the kcat/Km was 25.2 M⁻¹ s⁻¹.

B2: ZmGFT-B73 (Zea mays; N228G) (protein)
chain: B1 chain with N228G
notes: as for B1
Consider B2, for which, in series [1], the Michaelis-Menten constant (Km) is 888.0 ± 490.3 µM, the kcat stood at 0.09 ± 0.0233 s⁻¹ and the catalytic efficiency (kcat/Km) worked out at 101 M⁻¹ s⁻¹.

B3: ZmGFT-Qi319 (Zea mays) (protein)
chain: MEPHHANKPKPRPKLSAKHSKFISCKLYISESRNATAVDAVERASKSDPQVVVVSQFGDHHYNRFRYTLVSYIVVDDGGGGGSSAAGEATVVVHSPIRKVLLAMIEAAFSSIDLESQSGAHPRMGVVDDLSFHPVGQATVEDAASLARQVASDIACIAAVPVFLYAAAHPAGKSVGAVRRELGYYRPNYRGNQWSGSVLPDVLPVKPDVGPAHVVSHKRGATTVGVTPWIEGYNVPVLCKDVATVRRITRGVTGRSGGLPTVQALALFHGDDCTEIACLLDPDHASAYQVQTVVEQIAGDQGLEVEQGYYTDITKDEALDKYLKIACADD
notes: natural allele; C-terminal 10xHis tag, modified pFastBac1, Sf-9 insect cells; monomer
On to B3, for which, in series [1], the Km was found to be 153.1 ± 38.2 µM, the kcat was determined as 0.0317 ± 0.00167 s⁻¹ and the kcat/Km stood at 207 M⁻¹ s⁻¹.

B4: ZmGFT-Qi319 (Zea mays; G232N) (protein)
chain: B3 chain with G232N
notes: as for B3
B4: in series [2], the Michaelis-Menten constant (Km) came out at 2209.0 ± 1046.0 µM, the kcat was 0.075 ± 0.0533 s⁻¹ and the kcat/Km was found to be 34 M⁻¹ s⁻¹.
